Assay results published in a protein production outcome set (Wang et al. 2014).

Test: label from the status in PepcDB records
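Note: failed if final PepcDB status was selected cloned or expressed and not failed if soluble or beyond.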

Row | Sequence | protein production
1 | MLQCGAKNVNPLERFVSSLPVAAVLPELLAALDGASQVLLSAPTGAGKSTWLPLQLLAHPGINGKIILLEPRRLAARNVAQRLAELLNEKPGDTVGYRMRAQNCVGPNTRLEVITEGVLTRMIQRDPELSGVGLVILDEFHERSLQADLALALLLDVQQGLRDDLKLLIMSA | failed
2 | MKVALGGTFEPLHEGHKKLIDVAIKLGGRDITIGVTSDRMARARIRSVLPFAIRAENVKRYVMRKYGFEPEIVKITNPYGKTLDVDFEYLVVSPETYEMALKINQKREELGKRKITIVKVDWMMAEDGKPISSTRIKRGEIDRYGG | failed
3 | MRIIFKIIAFLSFFAFLSGCGAGLTAFSKGERLEREGKLDEAVIKYSEAVASNPEMNEYRMRLLKTSEEAALRHLSKGDEFIALKNYDAALVEYQAAVALDPSLQRAKQESDKLVRQKNSRTYFKEGQDFERGNKPREALQAYRKALDLDGQNKEAKEALERLLSTKKTRLEGYELNLKSTKPITLKFKDANLKDVFYIVTQLSGINFIFDDTIKDQKVTIYLENANFQQALDLLTNMNKLGKKVLNESTILIFPKTPEKSKQYEDLVVKTFFLNTLDAKKAVNLLRTMLQVRKVYVNEELNAIVVRDTSELVDVAGKILEANDVPDAEVLLDVEVIEVSKRNIENFGLALSKYAVSLNTQTPGGGFLNDTFSRASVSSSTGTTIQGTAGSELLQTFSWNGYSGFMTVPSASYSFGKSITNAEVLANPKIRVKNREKSKFTVGTRVPITTTSTTGTTGGFSVNVQYVDVGVKLNAEPTIMLNNEVSIKLGLEVSSIIDKQTVGGTDSATTVVTIGTRNLDTVLNLKDGETSVIGGLIEDNKQKGKQKIFLLGDIPIIGPLLSNNSNDNQKRELILAITPRLVRSVTVPEPDLVSFWSGKEDDPSVVKPFASFELEPEFAIGQPKTVKQPAASPAPVPASVSAPAQRVAPLQPVPGSPAPTAAPQTTTSPEVKQSAAPAPGQQPAPPSTAQSQAVAPLPVPASPAAPAATVAAASAVPVAAAPAPAVRGSLNISAPAAVNLGSQFKVEIRVSDVKGLLKAPFVLIYDPIFIDYVGAVEGTFLNRDGKPTSFNAQVDKAKGRVTITLARTGAEGIDGAGSLLTATFTAKNKGPASLGLQSVNFTDQANKPIDVVPYNTVVEVK | failed
4 | MRNKDNQHSRLYYIILTIVIIAICVVVVILFNTLKTNRSHSTDRYADFTELKKDTIKNKDWRIKTKHRKNKDILVTAIHGGGIEPGTTEIARRISNVGKYNFYTFEGLRKSNNDQLHVTSTQFNEPILDKLLKNTKETLSIHGFSGDDPIVYIGGKDKEMSHSITKELRKKDFTVKESPNKIDAKSSDNIANKNESNSGVQLELTTALRKQFFKHYKLDRHTRSDSDKYTKDFYKFANAVQKGIEKVNLEHHHHHH | not failed
5 | MPKRKNTSIKDYKLKSGKKRYMFQIYLGTNSNGKPIITRRRGFKSYAEAEAVFNKMSQIKPDNFVKQKQIKVAELRELWFENYKTQVKESTANKNKQVFDNHVIPAFGNQYIDKITVAELQKWADRKAKQIVKYRDAINEFNALFEYGIRLNYVSENPLKRIIIPKKTSRPRRDTEHNVYTQDELNQFLEVAKDYGLVPYTYFKLLSATGLRKSEALALTWSDINLTAGTLSVNKTLAYGLNGKTIIQPPKSPKSKRILPISDGLKEVLIDYKRKQKIISKELFHTNKGTYLRISKPDQWLKSIYAKDHEEKAEYAKKYNLKEPQPDLRHITVHGFRHTFATLLIAETNVKPKTVQMLLGHENIQMTLDIYTHINKKNTEDAVNALKQLNI | failed
6 | MSKGTLFDKVWDLHTVGTLPSGLTQLFIGLHLVHEVTSPQAFAMLRERGLKVLFPERTVATVDHIVPTENQARPFVDRLAEEMIQALEQNCQENNITFYNIGSGNQGIVHVIAPELGLTQPGMTIACGDSHTSSHGAFGAIAFGIGTSQVRDVLASQTLSLSKLKVRKIEVNGTLNPGVYAKDVILHIIRTLGVKGGVGYAYEYAGTTFEQMNMEERMTVCNMAIEGGARCGYVNPDQVTYDYLQGRDFAPQGADWEKAVAWWESIKSDADAEYDDVIVFNAADIPPTVTWGITPGQGIGVNQLIPQPEELLEEDRFVAEEAYRYMDLYPGQPIKGTKIDVCFIGSCTNGRLSDLQEAAKIAKGRHVAEGVKAFVVPGSERVKKAAEAEGLDKIFEAAGFEWREPGCSMCLAMNPDKLEGRQISASSSNRNFKGRQGSASGRTLLMSPAMVATAAIQGEVADVRELL | not failed
7 | MKVMIEKILLVQTLKRLPRMGWLIKGVQEPESIADHSFGVAFITLVLADVLEKRGKRIDVEKALKMAIVHDLAEAIITDIPLSAQEFVDKDKAEALVFKKVFPEFYELYREYQECSSPEAQLVRIADKLDMILQAYQYELSGNKNLDEFWEAIEEIKRLELSKYLEDILNSVGRLKA | not failed
8 | MSLSKTFLNELANQALTNPNDFTKGEKKQESFLLEYVSANPTGPLHIGHARGAVFGDTLTRLARHLGYKFNTEYYVNDAGNQIYLLGLSILLSVKESILHENVEYPEQYYKGEYIVDLAKEAFEKFGKEFFSEENIPSLADWAKDKMLVLIKQNLEQAKIKIDSYVSERSYYDALNATLESLKEHKGIYEQEGKIWLASSQKGDEKDRVIIREDGRGTYLAADIVYHKDKMSRGYGKCINIWGADHHGYIPRMKAAMEFLGFDSNNLEIILAQMVSLLKDGEPYKMSKRAGNFILMSDVVDEIGSDALRYIFLSKKCDTHLEFDISDLQKEDSSNPVYYINYAHARIHQVFAKAGKKIDDVMKADLQSLNQDGVNLLFEALNLKAVLNDAFEARALQKIPDYLKNLAANFHKFYNENKVVGSANENDLLKLFSLVALSIKTAFSLMGIEAKNKMEHEGHHHHHH | not failed
9 | MAKSPKKSKSRLWFLVHSWLALPIWFFVLIVCFTGMLAVVSQEIVWLADPAARANKPDADTERMSFQQVLEALNKAEPDMVVERLSQPDGSHFAVKANVTLPDGTSPTLYVNPYTGTIQGRTPDFNFEAFTRALHGWWLVPFTNGFSWGWYLVSLLGLPMLASLVTGLVVYKKFWKGFFKPVRTGHGSRIFWGDLHRLSGVWSIWFIAVISITGTWFLIQAILSDNHITISSRPIVPVIAREEVPQTPDGSPASRIDLDEAARLAGLAIPGLEVTSITLPATAYSHVTLSGPGWYPLMFQSASVNPYTRNVDSQFLISDRSALEFVTESMRPLHTGDFGGLPIKLVWFFFGLILTLMVLSGLLIWTKRTAQATAAALKRSERAPRAAHSETTVEIHS | failed
10 | MVINLNDKQTKTSKEGLISVSHPLAAKIGKDVLDQGGNAMDAVIAIQLALNVVEPFASGIGGGGYLLYYEQSTGSITAFDARETAPEHVDKQFYLDDSGEYKSFFDMTTHGKTVAVPAIPKLFDYIHKRYAKLSLEDLINPAIELAIEGHAANWATEKYSRQQHARLTKYHETAQVFTHENQYWREGDWIVQPELGKTFQILREQGFNAFYKGDIAKQLVNVVKACGGTITLEDLAKYDIQIKAPISATFKDYDIYSMGPSSSGGITVIQILKLLEHVDLPSMGPRSVDYLHHLIQAMHLAYSDRAQYLADDNFHEVPVQSLIDDDYLKARSTLIDSNKANIDIEHGVVSDCISHTDVEENHTETTHFCVIDKEGNIASFTTSIGMIYGSGITIPGYGVLLNTTMDGFDVVDGGINEIAPYKRPLSNMAPTIVMYHGKPILTVGAPGAISIIASVAQTLINVLVFGMDIQQAIDEPRIYSSHPNRIEWEPQFSQSTILALIAHGHAMEHKPDAYIGDVHGLQVDPTTYEASGGSDDTREGTVMGGEVLVIRKQPLPYRQMYDSDGFRLYFNDVQLPLLADQVRWMHDKYWVDESVVRIIFPEVSAHIEDLRSYENAGENYIDIAWLARKYAYQVTLKDDGLYLTDDTYTSVKRNTNAYYRYDRDSITR | failed
11 | MKRLAKTTLMTAMVAMVSFSIYAQTGRDIAQRVKDRPDGDTRRSELTMKLINKRGAVRERKLISYSIDMGKDKKDKKTIMFFLYPGDVKGTGFLTWDYDQIGKDDDKWLYLPAMKKTRRISGASAKKDYFMGSDFTYDDMGSRNVDEDTHKLLGEETFDGHKCWKLESTSKDQRDVFSKKIAWIRQDCLIPVRVEYYDRMNRLHRLLELSDIAQVDGFWMAQKMNMSNVQTGHRTVLEIKKPEFNRPIDESKFTVTSLEKGSL | not failed
12 | PTWMVVNPVAGGGKWLQYEQHVIRELTKKYRLSIRQTDETTSAESLALQAKQSGVNQVIVSGGDGTVTEVASQLVGTDIQLGIIPLGTANALCHVLYGIGMKLSPVEKACEAILAGHCQRIDTAECNQ | failed
